Experimental data published in PMC10281804, “The structural basis of the talin–KANK1 interaction that coordinates the actin and microtubule cytoskeletons at focal adhesions” (Open Biology, 2023).
Positions count from the first letter of the chain named. In names and notes the source's numbering stands.

B1: KANK1 L41E: mCherry-KANK1 with point mutation L41E (protein)
chain: MAHTTKVNGSASGKAGDILSGDQDKEQKDPYFVETPYGYQEDLDFLKYVDDIQKGNTIKRLNIQKRRKPSVPCPEPRTTSGQQGIWTSTESLSSSNSDDNKQCPNFLIARSQVTSTPISKPPPPLETSLPFLTIPENRQLPPPSPQLPKHNLHVTKTLMETRRRLEQERATMQMTPGEFRRPRLASFGGMGTTSSLPSFVGSGNHNPAKHQLQNGYQGNGDYGSYAPAAPTTSSMGSSIRHSPLSSGISTPVTNVSPMHLQHIREQMAIALKRLKELEEQVRTIPVLQVKISVLQEEKRQLVSQLKNQRAASQINVCGVRKRSYSAGNASQLEQLSRARRSGGELYIDYEEEEMETVEQSTQRIKEFRQLTADMQALEQKIQDSSCEASSELRENGECRSVAVGAEENMNDIVVYHRGSRSCKDAAVGTLVEMRNCGVSVTEAMLGVMTEADKEIELQQQTIESLKEKIYRLEVQLRETTHDREMTKLKQELQAAGSRKKVDKATMAQPLVFSKVVEAVVQTRDQMVGSHMDLVDTCVGTSVETNSVGISCQPECKNKVVGPELPMNWWIVKERVEMHDRCAGRSVEMCDKSVSVEVSVCETGSNTEESVNDLTLLKTNLNLKEVRSIGCGDCSVDVTVCSPKECASRGVNTEAVSQVEAAVMAVPRTADQDTSTDLEQVHQFTNTETATLIESCTNTCLSTLDKQTSTQTVETRTVAVGEGRVKDINSSTKTRSIGVGTLLSGHSGFDRPSAVKTKESGVGQININDNYLVGLKMRTIACGPPQLTVGLTASRRSVGVGDDPVGESLENPQPQAPLGMMTGLDHYIERIQKLLAEQQTLLAENYSELAEAFGEPHSQMGSLNSQLISTLSSINSVMKSASTEELRNPDFQKTSLGKITGNYLGYTCKCGGLQSGSPLSSQTSQPEQEVGTSEGKPISSLDAFPTQEGTLSPVNLTDDQIAAGLYACTNNESTLKSIMKKKDGNKDSNGAKKNLQFVGINGGYETTSSDDSSSDESSSSESDDECDVIEYPLEEEEEEEDEDTRGMAEGHHAVNIEGLKSARVEDEMQVQECEPEKVEIRERYELSEKMLSACNLLKNTINDPKALTSKDMRFCLNTLQHEWFRVSSQKSAIPAMVGDYIAAFEAISPDVLRYVINLADGNGNTALHYSVSHSNFEIVKLLLDADVCNVDHQNKAGYTPIMLAALAAVEAEKDMRIVEELFGCGDVNAKASQAGQTALMLAVSHGRIDMVKGLLACGADVNIQDDEGSTALMCASEHGHVEIVKLLLAQPGCNGHLEDNDGSTALSIALEAGHKDIAVLLYAHVNFAKAQSPGTPRLGRKTSPGPTHRGSFD
modifications: left off: mCherry, C-terminal, kept
B2: KANK1 L43E: mCherry-KANK1 with point mutation L43E (protein)
chain: B1 chain with E41L, L43E
modifications: left off: mCherry, C-terminal, kept
B3: KANK1 F45E: mCherry-KANK1 with point mutation F45E (protein)
chain: B1 chain with E41L, F45E
modifications: left off: mCherry, C-terminal, kept

Key:
[1] = tested on: focal adhesions of NIH3T3 fibroblasts; test: KANK1 localization to focal adhesions (co-expression with GFP–paxillin); format: cell-based, mouse; conditions: NIH3T3 fibroblasts co-expressing GFP–paxillin
Method: (§1) NIH3T3 mouse fibroblasts and HEK293T human epithelial cells were obtained from the American Type Culture Collection (ATCC). The vinculin null and WT mouse embryonic fibroblasts (MEFs) originate from the Eileen Adamson laboratory. All cells were maintained in Dulbecco's Modified Eagle Medium (DMEM; Sigma) supplemented with 10% fetal bovine serum (FBS, Gibco), 1% L-glutamine (Sigma) and 1% non-essential amino acids (Sigma). Talin1&2 null cells were cultured in DMEM F-12 (Gibco) supplemented with 10% FBS, 1% L-glutamine, 1% non-essential amino acids and […] HEPES (Sigma). All cells were cultured at 37̊C supplied with 5% CO2 and 95% humidity. Transient transfections were performed using Lipofectamine LTX with Plus Reagent (Invitrogen) to NIH3T3 cells, Lipofectamine 2000 (Invitrogen) to talin null cells, and jetPRIME reagent (Polyplus) to MEFs and HEK293T cells, as per the manufacturer's instructions.
(§2) For the construction of mCherry-KANK1, human FL-KANK1 (generous donation from the Bershadsky laboratory) cDNA was tagged in the C-terminal site with pmCherry (Clontech) by restriction digestion. Point mutations (L41E, L43E, F45E and V49E) were introduced in mCherry-KANK1 by site-directed mutagenesis (NEB) using the following oligonucleotides: […]ga[…] and […] for L41E; […]ga[…] and […] for L43E; […]gaa[…] and […] for F45E; […]a[…] and […] for V49E. Generation of GFP–talin1–cBAK and GFP–cBAK was as previously described. G1404L was introduced on GFP–talin1–cBAK by the method above using […]ctt[…] and […]. To generate GFP–talin1 R7DD–cBAK and GFP–talin1 R9DD-cBAK constructs, R7-DD (3555 bp) and R9-DD (2661 bp) were amplified from talin-1 (Mus musculus). Restriction digestion with XhoI and HindIII FastDigest enzymes (Thermo Scientific) was used to linearize GFP–cBAK. DNA assembly was performed to join R7-DD and R9-DD to linearized the GFP–cBAK vector using the NEBuilder HiFi DNA assembly kit (NEB).
(§3) Images of fixed samples in PBS were acquired at room temperature using an Olympus IX83 inverted microscope equipped with a 60×/1.42 PlanApo N oil objective and a QImaging Retiga R6 CCD camera, controlled by Metamorph software. Samples were illuminated using LEDs (UV/Cyan/Green-Yellow/Red, Lumencor) for fluorescence excitation; a Sedat filter set (DAPI/FITC/TRITC/Cy5, Chroma, 89000) was used.

talin1-cBAK = test: Mitochondria pulldown of KANK1 WT or point mutations, Western blot; format: cell-based; conditions: HEK293T cells; mitochondrial pulldown, triplicate experiments, normalized to WT; *** p < 0.001 (one-way ANOVA, Dunnett's)
Description: as §2
For fixed cell imaging, cells were cultured in glass-bottom dishes (IBL) coated with bovine fibronectin (Sigma) at a final concentration of 10 µg ml^−1. Samples were fixed in 4% paraformaldehyde (PFA, Sigma), and warmed to 37̊C, for 15 min before being washed three times with PBS. For immunofluorescence staining, samples were permeabilized at room temperature with 0.5% Triton X-100 (Sigma) for 5 min before being washed three times. […]
Protein samples were extracted from cells and mitochondria, respectively, using RIPA lysis buffer (Chromotek) supplemented with protease inhibitors. […] Primary antibody signal was detected using goat anti-mouse IgG conjugated to IRDye 680RD (ab216776, abcam) and goat anti-rabbit IgG conjugated to IRDye 800CW (ab216773, abcam) secondary antibodies, diluted 1 : 15 000, imaged with an Odyssey CLx imaging system (LI-CO Biosciences). […]

GFP–talin1–cBAK = test: Mitochondrial targeting system (MTS): recruitment of mCherry–KANK1 by GFP–talin1–cBAK; format: cell-based; conditions: NIH3T3 fibroblasts and HEK293T cells; fluorescence microscopy colocalization
Description: To examine the effect of these KANK1 mutations on talin interactions in cells, we next used a mitochondrial targeting system (MTS) which we previously used to screen for defined protein–protein interactions. In this assay, one protein is fused to a small peptide sequence from the pro-apoptotic protein BAK (cBAK) which leads to its insertion into the outer membrane of mitochondria. Proteins that interact with the cBAK-tagged protein will get recruited to mitochondria, and this recruitment can be verified either by visualizing colocalization using fluorescence microscopy (figure 4a) or by purification of mitochondria followed by detection of co-precipitates using biochemistry (figure 4b,c). […] To confirm that the interaction was meditated by the R7 domain, we performed the colocalization assays with truncated talin constructs.
as §1, §2, §3

[2] = tested on: α/β liprin in NIH3T3 fibroblasts; test: α/β liprin localization (CMSC assembly); format: cell-based, mouse; conditions: NIH3T3 fibroblasts co-transfected with GFP–paxillin and mCherry–KANK1 F45E; immunostaining
Method: as §1, with “instructions. […]” for “instructions.”
as §3

| Molecule | localization of mCherry–KANK1 to FAs / FA belt [1] | relative KANK1 binding to talin1-cBAK (%) (talin1-cBAK) | recruitment of mCherry–KANK1 to mitochondria by GFP–talin1–cBAK (GFP–talin1–cBAK) | α/β liprin localization [2] |
| --- | --- | --- | --- | --- |
| B1 | abolished localization to FAs and the FA belt | not detected | abolishes GFP–talin–cBAK mediated recruitment | – |
| B2 | abolished localization to FAs and the FA belt | not detected | abolishes GFP–talin–cBAK mediated recruitment | – |
| B3 | abolished localization to FAs and the FA belt | not detected | abolishes GFP–talin–cBAK mediated recruitment | loss of α/β liprin from both the adhesion belt and the cellular cortex |
